T1: extracellular ActRIIB (SEQ ID NO: 17) fused to the N-terminus of hFc through a GGG linker (human, UniProt Q13705 20-134)
T1 construct: also called ActRIIB-Fc; not shown: hFc
T1 sequence: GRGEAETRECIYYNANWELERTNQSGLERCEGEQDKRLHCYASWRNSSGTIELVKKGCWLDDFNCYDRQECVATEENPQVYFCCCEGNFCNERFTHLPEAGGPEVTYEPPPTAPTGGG

T2: BMP-9, Q9UK05
T2 chain: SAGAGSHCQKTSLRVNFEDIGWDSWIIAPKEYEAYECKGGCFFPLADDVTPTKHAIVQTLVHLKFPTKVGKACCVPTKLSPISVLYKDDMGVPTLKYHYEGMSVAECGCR

B1: extracellular ActRIIA (SEQ ID NO: 16) fused to the N-terminus of hFc through a GGG linker (Fc fusion)
chain: AILGRSETQECLFFNANWEKDRTNQTGVEPCYGDKDKRRHCFATWKNISGSIEIVKQGCWLDDINCYDRTDCVEKKDSPEVYFCCCEGNMCNEKFSYFPEMEVTQPTSGGG
notes: also called ActRIIA-Fc; not shown: hFc
B2: Activin B (ligand, UniProt P09529 293-407, looked up)
chain: GLECDGRTNLCCRQQFFIDFRLIGWNDWIIAPTGYYGNYCEGSCPAYLAGVPGSASSFHTAVVNQYRMRGLNPGTVNSCCIPTKLSTMSMLYFDDEYNIVKRDVPNMIVEECGCA
B3: growth differentiation factor 11 (GDF11) (ligand, UniProt O95390 299-407, looked up)
chain: NLGLDCDEHSSESRCCRYPLTVDFEAFGWDWIIAPKRYKANYCSGQCEYMFMQKYPHTHLVQQANPRGSAGPCCTPTKMSPINMLYFNDKQQIIYGKIPGMVVDRCGCS
B4: BMP-9 (ligand, UniProt Q9UK05 320-429, looked up)
chain: SAGAGSHCQKTSLRVNFEDIGWDSWIIAPKEYEAYECKGGCFFPLADDVTPTKHAIVQTLVHLKFPTKVGKACCVPTKLSPISVLYKDDMGVPTLKYHYEGMSVAECGCR
notes: also called bone morphogenetic protein 9
B5: Activin A (ligand, UniProt P08476 311-426, looked up)
chain: GLECDGKVNICCKKQFFVSFKDIGWNDWIIAPSGYHANYCEGECPSHIAGTSGSSLSFHSTVINHYRMRGHSPFANLKSCCVPTKLRPMSMLYYDDGQNIIKKDIQNMIVEECGCS

Experiments:
BMP-9 = target: B4; test: SPR (Biacore 3000), ActRII-Fc captured by anti-Fc antibody, ligand in solution
Excerpt: (§1) The GE Biacore 3000 was used to measure the kinetics of the interactions between the ActRIIB-Fc variants and the ligands Activin A, Activin B, growth differentiation factor 11 (GDF11), and BMP-9. ActRIIA, ActRIIB, ActRIIB 2.06, ActRIIB 2.11 and ActRIIB 2.12 were recombinant proteins. All other ActRIIB-Fc variants were expressed by transient expression in HEK293 cells and purified from the conditioned media using Protein-A Sepharose chromatography. Flow cells 1-4 were immobilized with anti-human/anti-mouse capture antibodies from GE using the amine coupling kit. The ActRII-Fc proteins were then captured on the chip in flow cells 2-4, with flow cell 1 being left empty as a reference cell to measure and subtract any nonspecific binding. HBS-EP+ buffer from GE Healthcare™ was used as a running buffer. Each ligand was run in a duplicate concentration series at 40 μl/min to avoid mass transport effects. All data was collected on a CM-5 chip except for GDF-11, which used CM-4. The data was analyzed using Scrubber2 by BioLogic™ Software to calculate the KD of each interaction (Table 3).

Activin B = target: B2; test: as above
Excerpt: as §1

Activin A = target: B5; test: as above
Excerpt: as §1

[1] = target: B3; test: SPR (Biacore 3000), ActRII-Fc captured by anti-Fc antibody, ligand in solution, CM-4 chip
Excerpt: as §1

[2] = target: T1, extracellular ActRIIB (SEQ ID NO: 17) …; test: SPR (Biacore 3000), ActRII-Fc captured by anti-Fc antibody, ligand in solution
Excerpt: as §1

[3] = target: T1, extracellular ActRIIB (SEQ ID NO: 17) …; test: SPR (Biacore 3000), ActRII-Fc captured by anti-Fc antibody, ligand in solution, CM-4 chip
Excerpt: as §1

[4] = target: B1; test: as above
Excerpt: as §1

[5] = target: B1; test: SPR (Biacore 3000), ActRII-Fc captured by anti-Fc antibody, ligand in solution
Excerpt: as §1

BMP-9, Q9UK05 = target: T2, BMP-9, Q9UK05; test: as above; conditions: remark: other sources report otherwise

| Kd (BMP-9) [nM] | Kd (Activin B) [nM] | Kd (Activin A) [nM] | binding result (BMP-9) | binding result (Activin B) | binding result (Activin A) | binding result [1] | Binder | other results |
| --- | --- | --- | --- | --- | --- | --- | --- | --- |
| 2.7 | 0.37 | 0.78 |  |  |  |  | ActRIIB 2.11 (SEQ ID NO: 14)-Fc (Fc fusion, not shown: a dimerising Fc or GST, also called ActRIIB 2.11 variant; ActRIIB 2.11-Fc) GRGEAETRECLYYNANWELERTNQSGVERCEGEKDKRLHCYASWRNSSGSLEIVKKGCWLDDFNCYDRTDCVATKENPQVYFCCCEGNMCNERFTHLPEAGGPEVTYEPPPTAPT | Kd [1]: 0.24 nM |
| 31 | 0.16 | 0.14 |  |  |  |  | ActRIIB 2.12 (SEQ ID NO: 15)-Fc (Fc fusion, not shown: a dimerising Fc or GST, also called ActRIIB 2.12 variant; ActRIIB 2.12-Fc) GRGEAETRECLYYNANWELERTNQSGVERCEGEKDKRLHCYASWRNSSGSLEIVKKGCWLDDFNCYDRDTCVATKENPQVYFCCCEGNMCNERFTHLPEAGGPEVTYEPPPTAPT | Kd [1]: 0.13 nM |
|  | 0.37 | 1 |  |  |  |  | B1 |  |
|  |  |  | no binding | no binding | no binding | no binding | extracellular ActRIIB variant ActRIIB 2.01 (SEQ ID NO: 4) fused to the N-terminus of hFc through a GGG linker (Fc fusion, also called ActRIIB 2.01 variant; not shown: hFc) GRGEAETRECIYYNANWELERTNQSGLERCEGEQDKRLHCYASWRNSSGTIELVKKGCWLDDFNCYDRQECVAKKDSPEVYFCCCEGNFCNERFTHLPEAGGPEVTYEPPPTAPTGGG |  |
|  |  |  | no binding | no binding | no binding | no binding | extracellular ActRIIB variant ActRIIB 2.05 (SEQ ID NO: 8) fused to the N-terminus of hFc through a GGG linker (Fc fusion, also called ActRIIB 2.05 variant; not shown: hFc) GRGEAETRECIYYNANWELERTNQSGLERCYGDKDKRLHCYASWRNSSGTIELVKKGCWLDDFNCYDRQECVAKKDSPEVYFCCCEGNFCNERFTHLPEAGGPEVTYEPPPTAPTGGG |  |
|  |  |  |  |  |  |  | B2 | Kd [2]: 0.023 nM |
|  |  |  |  |  |  |  | B3 | Kd [3]: 0.12 nM; Kd [4]: 0.081 nM |
|  |  |  | no binding | no binding | no binding | no binding | extracellular ActRIIB variant ActRIIB 2.07 (SEQ ID NO: 10) fused to the N-terminus of hFc through a GGG linker (Fc fusion, also called ActRIIB 2.07 variant; not shown: hFc) GRGEAETRECIFYNANWEKDRTNQSGLERCEGEQDKRLHCYASWRNSSGTIELVKKGCWLDDFNCYDRQECVAKKDSPEVYFCCCEGNFCNERFTHLPEAGGPEVTYEPPPTAPTGGG |  |
|  |  |  | no binding | no binding | no binding | no binding | extracellular ActRIIB variant ActRIIB 2.08 (SEQ ID NO: 11) fused to the N-terminus of hFc through a GGG linker (Fc fusion, also called ActRIIB 2.08 variant; not shown: hFc) GRGEAETRECIYYNANWELERTNQSGLERCYGDQDKRRHCYASWRNSSGTIELVKKGCWLDDFNCYDRQECVAKKDSPEVYFCCCEGNFCNERFTHLPEAGGPEVTYEPPPTAPTGGG |  |
| 0.3 | 0.1 | 0.053 |  |  |  |  | extracellular ActRIIB variant ActRIIB 2.06 (SEQ ID NO: 9) fused to the N-terminus of hFc through a GGG linker (Fc fusion, also called ActRIIB 2.06 variant; not shown: hFc) GRGEAETRECIYYNANWELERTNQSGLERCEGEQDKRLHCFASWKNSSGTIELVKQGCWLDDFNCYDRQECVAKKDSPEVYFCCCEGNFCNERFTHLPEAGGPEVTYEPPPTAPTGGG | Kd [1]: 0.027 nM |
|  |  |  | no binding | no binding | no binding | no binding | extracellular ActRIIB variant ActRIIB 2.02 (SEQ ID NO: 5) fused to the N-terminus of hFc through a GGG linker (Fc fusion, also called ActRIIB 2.02 variant; not shown: hFc) GRGEAETRECIYYNANWELERTNQTGLERCEGEQDKRLHCYASWRNISGTIELVKKGCWLDDFNCYDRQECVAKKDSPEVYFCCCEGNFCNERFTHLPEAGGPEVTYEPPPTAPTGGG |  |
|  |  |  | no binding | no binding | no binding | no binding | extracellular ActRIIB variant ActRIIB 2.03 (SEQ ID NO: 6) fused to the N-terminus of hFc through a GGG linker (Fc fusion, also called ActRIIB 2.03 variant; not shown: hFc) GRGEAETRECIYYNANWELERTNQTGLERCEGEQDKRLHCYASWRNITGTIELVKKGCWLDDFNCYDRQECVAKKDSPEVYFCCCEGNFCNERFTHLPEAGGPEVTYEPPPTAPTGGG |  |
|  |  |  |  |  |  |  | B4 | Kd [2]: 0.28 nM; Kd [5]: 25 nM |
|  |  |  |  | no binding | no binding | no binding | extracellular ActRIIB variant ActRIIB/A (SEQ ID NO: 2) fused to the N-terminus of hFc through a GGG linker (Fc fusion, also called ActRIIB/A variant; not shown: hFc) GRGEAETRECIFYNANWEKDRTNQSGLEPCYGDQDKRRHCFASWKNSSGTIELVKQGCWLDDINCYDRQECVAKKDSPEVYFCCCEGNFCNERFTHLPEAGGPEVTYEPPPTAPTGGG | Kd (BMP-9, Q9UK05): 88 nM |
|  |  |  | no binding | no binding | no binding | no binding | extracellular ActRIIB variant ActRIIB 2.04 (SEQ ID NO: 7) fused to the N-terminus of hFc through a GGG linker (Fc fusion, also called ActRIIB 2.04 variant; not shown: hFc) GRGEAETRECIYYNANWELERTNQSGLEPCEGEQDKRLHCYASWRNSSGTIELVKKGCWLDDFNCYDRQECVAKKDSPEVYFCCCEGNFCNERFTHLPEAGGPEVTYEPPPTAPTGGG |  |
|  |  |  |  |  |  |  | B5 | Kd [2]: 0.063 nM |
| 28 | 400 | 390 |  |  |  |  | extracellular ActRIIB variant ActRIIBΔ9 (SEQ ID NO: 3) fused to the N-terminus of hFc through a GGG linker (Fc fusion, also called ActRIIBΔ9 variant; not shown: hFc) GRGEAETRECIYYNANWELDRTNQSGLERCEGEQDKRLHCYASWRNSSGTIELVKKGCWLDDINCYDRQECVATKENPQVYFCCCEGNFCNERFTHLPEAGGPEVTYEPPPTAPTGGG | Kd [1]: 530 nM |
| 0.44 | 0.16 | 0.1 |  |  |  |  | extracellular ActRIIB variant ActRIIB 2.09 (SEQ ID NO: 12) fused to the N-terminus of hFc through a GGG linker (Fc fusion, also called ActRIIB 2.09 variant; not shown: hFc) GRGEAETRECLYYNANWELERTNQSGVERCEGEKDKRLHCYASWRNSSGSLEIVKKGCWLDDFNCYDRTDCVATEENPQVYFCCCEGNMCNERFTHLPEAGGPEVTYEPPPTAPTGGG |  |
| 1.7 | 0.28 | 0.45 |  |  |  |  | extracellular ActRIIB variant ActRIIB 2.10 (SEQ ID NO: 13) fused to the N-terminus of hFc through a GGG linker (Fc fusion, also called ActRIIB 2.10 variant; not shown: hFc) GRGEAETRECLYYNANWELERTNQSGVERCEGEKDKRLHCYASWRNSSGSLEIVKKGCWLDDFNCYDRDTCVATEENPQVYFCCCEGNMCNERFTHLPEAGGPEVTYEPPPTAPTGGG |  |

Reference: patent US20250206799A1 (KEROS THERAPEUTICS, published 2025)
